Consider 3 proteins from paper doi:10.1101/869925 (bioRxiv, 2019).

Data set [1] concerns the molecule itself. The data set is described as follows: fluorescence correlation spectroscopy.
The data set “native gel or EMSA” concerns the molecule itself. In words: native gel or EMSA. For orientation: In EMSA bound probe runs differently from free probe, usually more slowly.

B1: his-EmGFP-DBNL(1-256) (domain or fragment)
chain: not shown
Turning to B1, in data set [1], the binding result was “binds”.

B2: his-EmGFP-DBNL(1-374) (domain or fragment)
chain: not shown
B2: the binding result in data set [1] is “binds”.

B3: endogenous human drebrin-like protein (DBNL) (natural protein)
chain: not shown
A word on the stoichiometry N: it is a count of units in the complex or per binding partner. Regarding B3, in the data set “native gel or EMSA”, the “stoichiometry N” value is 2.
